Test results reported in patent publication US20120134928A1.

Target: Est1-(myc)13 (Saccharomyces cerevisiae (from context; not stated for this protein)) (UniProt P17214)
Assay: co-immunoprecipitation with anti-Rat1 peptide antibodies from extracts of yeast over-expressing Est1-(myc)13, probed for myc

Sequence of UniProt P17214 (P17214 whole entry): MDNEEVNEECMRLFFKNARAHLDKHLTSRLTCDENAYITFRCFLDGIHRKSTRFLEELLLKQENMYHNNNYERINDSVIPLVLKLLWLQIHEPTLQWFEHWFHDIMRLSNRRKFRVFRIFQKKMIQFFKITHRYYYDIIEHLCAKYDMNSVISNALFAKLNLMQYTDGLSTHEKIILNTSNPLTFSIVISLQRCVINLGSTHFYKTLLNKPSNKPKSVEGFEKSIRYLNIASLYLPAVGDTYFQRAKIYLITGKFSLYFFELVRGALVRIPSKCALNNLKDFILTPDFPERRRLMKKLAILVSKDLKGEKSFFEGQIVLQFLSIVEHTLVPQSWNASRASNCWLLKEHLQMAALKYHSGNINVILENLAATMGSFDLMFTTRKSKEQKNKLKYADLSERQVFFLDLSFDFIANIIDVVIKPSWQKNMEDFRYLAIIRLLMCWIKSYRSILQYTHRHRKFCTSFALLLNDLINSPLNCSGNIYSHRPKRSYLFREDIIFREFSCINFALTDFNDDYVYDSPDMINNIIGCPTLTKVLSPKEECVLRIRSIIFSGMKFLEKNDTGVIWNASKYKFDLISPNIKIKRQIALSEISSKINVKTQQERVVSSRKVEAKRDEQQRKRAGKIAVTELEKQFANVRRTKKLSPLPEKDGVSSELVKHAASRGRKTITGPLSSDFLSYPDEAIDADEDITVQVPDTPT

co-immunoprecipitation efficiency: 5%
Substance: S. cerevisiae Rat1 protein (from UniProt Q02792 2-1006) (enzyme)
